Read-outs that look alike come from different tables or passages of the source.
Experiments:
[1] = target: human FcγRI (CD64) extracellular domain (human) (UniProt P12314); experiment: SPR (Biacore), antibody captured on protein A, FcγR ECD as analyte, 25 °C
[2] = target: human FcγRI (CD64) extracellular domain (human) (UniProt P12314); experiment: as above; remark: listed apart in the source
[3] = target: human FcγRIIA_131H (CD32a) extracellular domain (human) (UniProt P12318); experiment: SPR (Biacore), antibody captured on protein A, FcγR ECD as analyte, steady state, 25 °C
[4] = target: human FcγRIIA_131R (CD32a) extracellular domain (human) (UniProt P12318); experiment: as above
[5] = target: human FcγRIIIA_158F (CD16a) extracellular domain (human) (UniProt P08637); experiment: as above
[6] = target: human FcγRIIb (CD32b) extracellular domain (human) (UniProt P31994); experiment: as above
[7] = target: human FcγRIIA_131H (CD32a) extracellular domain (human) (UniProt P12318); experiment: as above; remark: listed apart in the source
[8] = target: human FcγRIIA_131R (CD32a) extracellular domain (human) (UniProt P12318); experiment: as above; remark: listed apart in the source
[9] = target: human FcγRIIIA_158F (CD16a) extracellular domain (human) (UniProt P08637); experiment: as above; remark: listed apart in the source
[10] = target: human FcγRIIb (CD32b) extracellular domain (human) (UniProt P31994); experiment: as above; remark: listed apart in the source
[11] = target: human FcγRIIIA_158V (CD16a) extracellular domain (human) (UniProt P08637); experiment: as above
Sequence of human FcγRIIIA_158V (CD16a) extracellular domain (human) (P08637 17-208 F176V): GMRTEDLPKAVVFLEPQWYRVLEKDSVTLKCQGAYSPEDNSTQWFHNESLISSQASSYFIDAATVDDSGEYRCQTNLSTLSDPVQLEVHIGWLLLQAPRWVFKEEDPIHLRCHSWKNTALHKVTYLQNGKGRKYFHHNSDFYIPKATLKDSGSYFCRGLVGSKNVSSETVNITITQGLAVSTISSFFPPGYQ

Sequence of human FcγRI (CD64) extracellular domain (human) (P12314 16-292): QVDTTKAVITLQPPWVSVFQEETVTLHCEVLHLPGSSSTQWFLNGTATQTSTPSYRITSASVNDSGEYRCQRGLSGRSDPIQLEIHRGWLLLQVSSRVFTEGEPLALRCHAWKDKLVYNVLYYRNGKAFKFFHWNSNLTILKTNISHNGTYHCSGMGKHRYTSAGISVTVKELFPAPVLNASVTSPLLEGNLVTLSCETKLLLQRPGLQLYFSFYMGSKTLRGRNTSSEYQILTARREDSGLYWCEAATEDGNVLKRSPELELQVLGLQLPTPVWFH
Sequence of human FcγRIIb (CD32b) extracellular domain (human) (P31994 43-217): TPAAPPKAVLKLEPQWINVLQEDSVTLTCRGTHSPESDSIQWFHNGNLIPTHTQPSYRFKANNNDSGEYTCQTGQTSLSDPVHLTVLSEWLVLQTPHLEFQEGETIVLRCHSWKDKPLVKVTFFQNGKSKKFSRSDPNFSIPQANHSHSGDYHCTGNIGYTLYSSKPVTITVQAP
Sequence of human FcγRIIA_131H (CD32a) extracellular domain (human) (P12318 34-217): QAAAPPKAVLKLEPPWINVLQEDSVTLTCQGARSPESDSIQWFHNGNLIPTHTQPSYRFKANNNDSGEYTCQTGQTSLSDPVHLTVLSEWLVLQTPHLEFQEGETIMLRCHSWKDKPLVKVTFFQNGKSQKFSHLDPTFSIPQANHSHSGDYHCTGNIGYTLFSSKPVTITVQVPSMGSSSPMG
Sequence of human FcγRIIA_131R (CD32a) extracellular domain (human) (P12318 34-217 H167R): as the sequence (P12318 34-217) above, with H134R counted along it
Sequence of human FcγRIIIA_158F (CD16a) extracellular domain (human) (P08637 17-208): as the sequence (P08637 17-208 F176V) above, with V160F counted along it

Kd [1] [nM] | Kd [2] [nM] | Kd [3] [nM] | Kd [4] [nM] | Kd [5] [nM] | Kd [6] [nM] | Kd [7] [nM] | Kd [8] [nM] | Kd [9] [nM] | Kd [10] [nM] | Kd [11] [nM] | Substance
0.0559 | 0.0521 | 690 | 760 | 910 | 3750 | 680 | 740 | 1290 | 3110 |  | Hu IgG1 control (antibody)
 | 0.419 |  |  |  |  | 5310 | 2310 |  | 2780 | 7350 | Hu IgG4 SP control (antibody)

Source: patent US20240100176A1, “HUMAN INTERLEUKIN-4 RECEPTOR ALPHA ANTIBODY GLUCOCORTICOID CONJUGATES” (Eli Lilly and Company, priority 2022, published 2024)
